# Patent publication US20210087522
# B1: SPPT, Sfp-like phosphopantetheinyl transferase (PPTase) from Synechocystis sp. PCC6803 (protein)
# chain: MLPQPQIWLCPTDRPLIPGYQALLSSEEMARGERYQRPQDKQRFLTMRLALRILLARQLDCLPQQLQFTYGPQGKPELVDRERRSPWFNVAHSGNYGLIGLSTEGEIGVDLQIMLPKPHYLKLAKRFFAPQEVQQLESLEGEKRTKLFYQLWTAKEAFLKATGKGISGGLNQVIPDENLAKYQYLPDSGDTNHWRLSSQPLLADQGSNDNYWMAIAWCTNEVNQVESNYLPNIQPFQWPRNLDSLP
# B2: MPPT, Sfp-like phosphopantetheinyl transferase (PPTase) from Microcystis aeruginosa NIES843 (protein)
# chain: MFISTDEVHLYFISLDPSGDRLETLASLLSEDEIIRANRYHFPEHKRRFLVARGCLREILGSYLAISPEKIEFIYSERGKPSINYQLQFNLSHSEEMAICGLTLTARIGVDLEKMRQMKDLDSLTKRFFCAREHELVEKSAEKEKLFFQLWTAKEAYLKAVGTGISGGLDRVEVGLNPLKLDNVAGEWQLWTAAIGDNYRATVVIEGSDRVIKTFGLSDL
# How the values were obtained:
# [1] = biological target: ScACP, ACP of a putative concanamycin gene cluster from Streptomyces coelicolor A(3)2
# [2] = biological target: T1, APACP, ACP of the glycolipid PKS in Anabaena
# T1 chain: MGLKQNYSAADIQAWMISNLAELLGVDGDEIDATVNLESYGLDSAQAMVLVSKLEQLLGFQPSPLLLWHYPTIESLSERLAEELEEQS
# [3] = biological target: T2, FNsACP, homolog of ArCPNp from Fischerella
# T2 chain: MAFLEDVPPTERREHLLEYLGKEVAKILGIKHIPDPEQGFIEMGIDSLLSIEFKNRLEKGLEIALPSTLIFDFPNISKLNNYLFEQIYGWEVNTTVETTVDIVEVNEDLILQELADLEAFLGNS
# [4] = biological target: T3, FisPCP, PCP of the shinorine gene cluster from Fischerella
# T3 chain: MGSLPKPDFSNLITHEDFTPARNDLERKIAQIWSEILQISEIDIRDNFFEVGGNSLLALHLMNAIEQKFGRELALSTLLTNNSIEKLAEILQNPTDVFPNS
# [5] = biological target: AprACP, ACP of the apratoxin (PK/NRP) gene cluster in Lyngbya sp.
# [6] = biological target: T4, SsPCP, PCP of a thaxtomin cluster from Streptomyces scabiei 87.22
# T4 chain: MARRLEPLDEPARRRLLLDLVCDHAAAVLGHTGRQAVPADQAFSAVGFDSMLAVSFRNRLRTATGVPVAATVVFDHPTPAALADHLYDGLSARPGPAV
# [7] = biological target: T5, MACP, CP of an uncharacterized NRP/PK gene cluster from M. aeruginosa NIES843
# T5 chain: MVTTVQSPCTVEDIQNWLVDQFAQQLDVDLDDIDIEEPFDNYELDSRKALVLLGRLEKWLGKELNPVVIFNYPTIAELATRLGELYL
# [8] = biological target: T6, SFACP, ACP of the FAS from Synechocystis
# T6 chain: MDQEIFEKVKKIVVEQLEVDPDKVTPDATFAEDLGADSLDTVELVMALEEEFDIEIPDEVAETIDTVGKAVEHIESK
# [9] = biological target: T7, APNPCP, CP of an uncharacterized NRP/PK gene cluster from Anabaena
# T7 chain: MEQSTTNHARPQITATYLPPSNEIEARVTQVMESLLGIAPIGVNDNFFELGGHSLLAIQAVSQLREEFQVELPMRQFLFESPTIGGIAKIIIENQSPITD
# [10] = biological target: T8, AFACP, ACP of the FAS from Anabaena
# T8 chain: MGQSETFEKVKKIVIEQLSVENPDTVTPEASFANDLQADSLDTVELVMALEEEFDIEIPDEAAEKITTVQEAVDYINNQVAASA
# [11] = biological target: T9, FNPCP, CP of an uncharacterized NRP gene cluster from Fischerella
# T9 chain: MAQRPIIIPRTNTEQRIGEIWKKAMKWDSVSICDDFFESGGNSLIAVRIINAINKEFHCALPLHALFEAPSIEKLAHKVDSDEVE
protein,measurement,setting,value
B1,"phosphopantetheinylation of CP (apo to holo), LC-MS; not modified",[1],SPPT also phosphopantetheinylated all CP substrates except ScACP
same,relative activity (most active PPTase = 100%),[1],"the low or no activity toward MACP, SsPCP and ScACP"
same,Km,[2],26.5 µM
same,kcat,[2],0.243 s⁻¹
same,kcat/Km,[2],8330 M⁻¹ s⁻¹
same,"phosphopantetheinylation of CP (apo to holo), LC-MS",[2],SPPT also phosphopantetheinylated all CP substrates except ScACP
same,relative conversion (most active PPTase = 100%),[2],SPPT promoted >71% relative conversion of eight cyanobacterial CPs
same,Km,[3],14.1 µM
same,kcat,[3],0.025 s⁻¹
same,kcat/Km,[3],1670 M⁻¹ s⁻¹
same,"phosphopantetheinylation of CP (apo to holo), LC-MS",[3],SPPT also phosphopantetheinylated all CP substrates except ScACP
same,relative conversion (most active PPTase = 100%),[3],SPPT promoted >71% relative conversion of eight cyanobacterial CPs
same,Km,[4],10 µM
same,kcat,[4],0.0417 s⁻¹
same,kcat/Km,[4],5000 M⁻¹ s⁻¹
same,"phosphopantetheinylation of CP (apo to holo), LC-MS",[4],SPPT also phosphopantetheinylated all CP substrates except ScACP
same,Km,[5],12.9 µM
same,kcat,[5],0.218 s⁻¹
same,kcat/Km,[5],16700 M⁻¹ s⁻¹
same,"phosphopantetheinylation of CP (apo to holo), LC-MS",[5],SPPT also phosphopantetheinylated all CP substrates except ScACP
same,relative conversion (most active PPTase = 100%),[5],SPPT promoted >71% relative conversion of eight cyanobacterial CPs
same,Km,[6],14.3 µM
same,kcat,[6],0.0167 s⁻¹
same,kcat/Km,[6],1000 M⁻¹ s⁻¹
same,"phosphopantetheinylation of CP (apo to holo), LC-MS",[6],SPPT also phosphopantetheinylated all CP substrates except ScACP
same,relative activity (most active PPTase = 100%),[6],"the low or no activity toward MACP, SsPCP and ScACP"
same,Km,[7],22 µM
same,kcat,[7],0.0717 s⁻¹
same,kcat/Km,[7],3330 M⁻¹ s⁻¹
same,"phosphopantetheinylation of CP (apo to holo), LC-MS",[7],SPPT also phosphopantetheinylated all CP substrates except ScACP
same,relative activity (most active PPTase = 100%),[7],"the low or no activity toward MACP, SsPCP and ScACP"
same,Km,[8],1.5 µM
same,kcat,[8],0.0233 s⁻¹
same,kcat/Km,[8],6500 M⁻¹ s⁻¹
same,"phosphopantetheinylation of CP (apo to holo), LC-MS",[8],SPPT also phosphopantetheinylated all CP substrates except ScACP
same,relative conversion (most active PPTase = 100%),[8],SPPT promoted >71% relative conversion of eight cyanobacterial CPs
same,Km,[9],17 µM
same,kcat,[9],0.0383 s⁻¹
same,kcat/Km,[9],1670 M⁻¹ s⁻¹
same,"phosphopantetheinylation of CP (apo to holo), LC-MS",[9],SPPT also phosphopantetheinylated all CP substrates except ScACP
same,Km,[10],13.3 µM
same,kcat,[10],0.245 s⁻¹
same,kcat/Km,[10],18300 M⁻¹ s⁻¹
same,"phosphopantetheinylation of CP (apo to holo), LC-MS",[10],SPPT also phosphopantetheinylated all CP substrates except ScACP
same,relative conversion (most active PPTase = 100%),[10],SPPT promoted >71% relative conversion of eight cyanobacterial CPs
same,Km,[11],7 µM
same,kcat,[11],0.168 s⁻¹
same,kcat/Km,[11],23300 M⁻¹ s⁻¹
same,"phosphopantetheinylation of CP (apo to holo), LC-MS",[11],SPPT also phosphopantetheinylated all CP substrates except ScACP
B2,Km,[1],12.4 µM
same,kcat,[1],0.0433 s⁻¹
same,kcat/Km,[1],3330 M⁻¹ s⁻¹
same,"phosphopantetheinylation of CP (apo to holo), LC-MS",[1],"APPT, AvPPT, MPPT and Sfp functionalized all substrates"
same,relative activity (most active PPTase = 100%),[1],This enzyme also displayed a modest relative activity toward ScACP and SsPCP
same,Km,[2],23.1 µM
same,kcat,[2],0.353 s⁻¹
same,kcat/Km,[2],15000 M⁻¹ s⁻¹
same,"phosphopantetheinylation of CP (apo to holo), LC-MS",[2],"APPT, AvPPT, MPPT and Sfp functionalized all substrates"
same,relative activity (most active PPTase = 100%),[2],MPPT showed >84% relative activity toward all nine cyanobacterial CPs
same,Km,[3],8.3 µM
same,kcat,[3],0.035 s⁻¹
same,kcat/Km,[3],5000 M⁻¹ s⁻¹
same,"phosphopantetheinylation of CP (apo to holo), LC-MS",[3],"APPT, AvPPT, MPPT and Sfp functionalized all substrates"
same,relative activity (most active PPTase = 100%),[3],MPPT showed >84% relative activity toward all nine cyanobacterial CPs
same,Km,[4],7.2 µM
same,kcat,[4],0.0317 s⁻¹
same,kcat/Km,[4],5000 M⁻¹ s⁻¹
same,"phosphopantetheinylation of CP (apo to holo), LC-MS",[4],"APPT, AvPPT, MPPT and Sfp functionalized all substrates"
same,relative activity (most active PPTase = 100%),[4],MPPT showed >84% relative activity toward all nine cyanobacterial CPs
same,Km,[5],9.1 µM
same,kcat,[5],0.173 s⁻¹
same,kcat/Km,[5],18300 M⁻¹ s⁻¹
same,"phosphopantetheinylation of CP (apo to holo), LC-MS",[5],"APPT, AvPPT, MPPT and Sfp functionalized all substrates"
same,relative activity (most active PPTase = 100%),[5],MPPT showed >84% relative activity toward all nine cyanobacterial CPs
same,Km,[6],9.1 µM
same,kcat,[6],0.118 s⁻¹
same,kcat/Km,[6],11700 M⁻¹ s⁻¹
same,"phosphopantetheinylation of CP (apo to holo), LC-MS",[6],"APPT, AvPPT, MPPT and Sfp functionalized all substrates"
same,relative activity (most active PPTase = 100%),[6],This enzyme also displayed a modest relative activity toward ScACP and SsPCP
same,Km,[7],4.9 µM
same,kcat,[7],0.07 s⁻¹
same,kcat/Km,[7],15000 M⁻¹ s⁻¹
same,"phosphopantetheinylation of CP (apo to holo), LC-MS",[7],"APPT, AvPPT, MPPT and Sfp functionalized all substrates"
same,relative activity (most active PPTase = 100%),[7],MPPT showed >84% relative activity toward all nine cyanobacterial CPs including the highest activity on MACP
same,Km,[8],3.2 µM
same,growth of Synechocystis mutant with the SPPT gene replaced,[8],demonstrated their in vivo function as activating SFACP for the synthesis of essential fatty acids
same,kcat,[8],0.02 s⁻¹
same,kcat/Km,[8],6670 M⁻¹ s⁻¹
same,"phosphopantetheinylation of CP (apo to holo), LC-MS",[8],"APPT, AvPPT, MPPT and Sfp functionalized all substrates"
same,relative activity (most active PPTase = 100%),[8],MPPT showed >84% relative activity toward all nine cyanobacterial CPs
same,Km,[9],9.5 µM
same,kcat,[9],0.0317 s⁻¹
same,kcat/Km,[9],3330 M⁻¹ s⁻¹
same,"phosphopantetheinylation of CP (apo to holo), LC-MS",[9],"APPT, AvPPT, MPPT and Sfp functionalized all substrates"
same,relative activity (most active PPTase = 100%),[9],MPPT showed >84% relative activity toward all nine cyanobacterial CPs
same,Km,[10],6.9 µM
same,kcat,[10],0.14 s⁻¹
same,kcat/Km,[10],20000 M⁻¹ s⁻¹
same,"phosphopantetheinylation of CP (apo to holo), LC-MS",[10],"APPT, AvPPT, MPPT and Sfp functionalized all substrates"
same,relative activity (most active PPTase = 100%),[10],MPPT showed >84% relative activity toward all nine cyanobacterial CPs
same,Km,[11],7.2 µM
same,kcat,[11],0.16 s⁻¹
same,kcat/Km,[11],21700 M⁻¹ s⁻¹
same,"phosphopantetheinylation of CP (apo to holo), LC-MS",[11],"APPT, AvPPT, MPPT and Sfp functionalized all substrates"
same,relative activity (most active PPTase = 100%),[11],MPPT showed >84% relative activity toward all nine cyanobacterial CPs
